# Measured values taken from paper PMC3618304.
# T1: Ssh1-CPLV (S. cerevisiae)
# T1 sequence (P38353 whole entry, looked up): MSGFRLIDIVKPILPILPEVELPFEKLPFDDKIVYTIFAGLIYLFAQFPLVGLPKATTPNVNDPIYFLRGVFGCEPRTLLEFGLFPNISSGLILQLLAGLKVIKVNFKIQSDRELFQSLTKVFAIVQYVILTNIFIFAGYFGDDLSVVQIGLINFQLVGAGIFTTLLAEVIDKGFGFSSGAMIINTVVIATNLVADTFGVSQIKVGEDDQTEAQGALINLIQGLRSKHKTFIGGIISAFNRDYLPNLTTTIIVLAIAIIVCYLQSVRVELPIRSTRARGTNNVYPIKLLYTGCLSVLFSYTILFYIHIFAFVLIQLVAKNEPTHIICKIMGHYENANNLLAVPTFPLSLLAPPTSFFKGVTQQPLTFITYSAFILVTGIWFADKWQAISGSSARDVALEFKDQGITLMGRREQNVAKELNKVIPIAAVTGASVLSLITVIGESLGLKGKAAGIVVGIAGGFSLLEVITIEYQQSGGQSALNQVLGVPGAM
# T2: Sec61-CPLV (S. cerevisiae)
# T2 sequence (P32915 whole entry, looked up): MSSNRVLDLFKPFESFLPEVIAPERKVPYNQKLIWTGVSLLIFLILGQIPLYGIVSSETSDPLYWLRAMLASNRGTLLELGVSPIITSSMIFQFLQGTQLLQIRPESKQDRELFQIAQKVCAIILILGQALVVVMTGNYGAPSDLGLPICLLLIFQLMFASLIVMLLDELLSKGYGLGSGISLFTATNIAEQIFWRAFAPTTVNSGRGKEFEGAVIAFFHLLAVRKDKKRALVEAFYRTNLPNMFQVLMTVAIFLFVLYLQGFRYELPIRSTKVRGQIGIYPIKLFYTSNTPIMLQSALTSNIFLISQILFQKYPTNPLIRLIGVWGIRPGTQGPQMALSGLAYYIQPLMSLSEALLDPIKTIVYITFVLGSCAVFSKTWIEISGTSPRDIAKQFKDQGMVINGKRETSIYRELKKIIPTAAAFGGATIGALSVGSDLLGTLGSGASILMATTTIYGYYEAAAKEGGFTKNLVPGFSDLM
# B1: Nub-Sbh1p (natural protein)
# chain: MSSPTPPGGQRTLQKRKQGSSQKVAASAPKKNTNSNNSILKIYSDEATGLRVDPLVVLFLAVGFIFSVVALHVISKVAGKLF
# B2: Nub-Sss1p (natural protein)
# chain: MARASEKGEEKKQSNNQVEKLVEAPVEFVREGTQFLAKCKKPDLKEYTKIVKAVGIGFIAVGIIGYAIKLIHIPIRYVIV
# B3: Nub-Sbh2p (natural protein)
# chain: MAASVPPGGQRILQKRRQAQSIKEKQAKQTPTSTRQAGYGGSSSSILKLYTDEANGFRVDSLVVLFLSVGFIFSVIALHLLTKFTHII
# B4: Nub-Sec62p (natural protein)
# chain: MSAVGPGSNAGASVNGGSATAIATLLRNHKELKQRQGLFQAKQTDFFRYKRFVRALHSEEYANKSARQPEIYPTIPSNKIEDQLKSREIFIQLIKAQMVIPVKKLHSQECKEHGLKPSKDFPHLIVSNKAQLEADEYFVWNYNPRTYMDYLIVIGVVSIILALVCYPLWPRSMRRGSYYVSLGAFGILAGFFAVAILRLILYVLSLIVYKDVGGFWIFPNLFEDCGVLESFKPLYGFGEKDTYSYKKKLKRMKKKQAKRESNKKKAINEKAEQN
# Target: T1, Ssh1-CPLV (S. cerevisiae)
# Assay: two-hybrid; split-ubiquitin, liquid beta-galactosidase assay (ONPG) on cell lysates, 30°C for 180 min, mean of 6 samples
row,beta-galactosidase units,Binder
1,0.43 U,B1
2,0.55 U,B2
3,0.45 U,B3

# Target: T2, Sec61-CPLV (S. cerevisiae)
# Assay: as above
row,beta-galactosidase units,Binder
1,9.8 U,B1
2,6 U,B2
3,0.28 U,B3

# Target: T1, Ssh1-CPLV (S. cerevisiae)
# Assay: split reporter (BiFC, NanoBiT); split-ubiquitin, cleavage of PLV from the bait read by quantitative immunoblot of cell lysates with anti-PLV and 125I-Protein A; ratio of cleaved PLV to Arf1p
row,cleaved PLV relative to Arf1p (arbitrary units),Binder
1,7.1,B1
2,7.1,B2
3,7.2,B3

# Target: T2, Sec61-CPLV (S. cerevisiae)
# Assay: as above
row,cleaved PLV relative to Arf1p (arbitrary units),Binder
1,18,B1
2,15,B2
3,9.6,B3
4,6.6,B4
